Test results published in patent publication US8461305B2, “L-fucose α1→6 specific lectin” (J-Oil Mills, Inc., priority 2008, dated 2013).

T1: Invertase (yeast) (Saccharomyces cerevisiae, UniProt P00724)
T1 sequence (P00724 20-532): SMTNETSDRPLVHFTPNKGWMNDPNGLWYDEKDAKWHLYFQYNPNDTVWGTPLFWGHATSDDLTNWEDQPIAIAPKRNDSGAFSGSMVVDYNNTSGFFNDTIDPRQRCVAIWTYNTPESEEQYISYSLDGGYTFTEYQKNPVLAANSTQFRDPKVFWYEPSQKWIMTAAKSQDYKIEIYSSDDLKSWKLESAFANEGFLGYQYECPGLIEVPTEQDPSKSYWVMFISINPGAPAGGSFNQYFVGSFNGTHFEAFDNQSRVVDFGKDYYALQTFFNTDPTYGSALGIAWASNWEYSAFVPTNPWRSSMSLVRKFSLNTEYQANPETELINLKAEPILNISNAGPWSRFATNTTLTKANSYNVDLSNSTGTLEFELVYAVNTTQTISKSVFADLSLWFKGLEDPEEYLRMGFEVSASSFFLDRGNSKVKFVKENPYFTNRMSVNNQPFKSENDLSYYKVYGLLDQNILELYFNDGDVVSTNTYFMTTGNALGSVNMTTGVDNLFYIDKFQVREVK


Experiments:
Experiment in all cases: detection of glycoproteins by ELISA with biotin-labeled lectin
Format in all cases: binding
[1] = target: Blood serum albumin (bovine) (Bos taurus, UniProt P02769); conditions: (0) Blood serum albumin (bovine), No sugar chain; thyroglobulin value = 100%
Blood serum albumin (bovine), sequence (P02769 25-607): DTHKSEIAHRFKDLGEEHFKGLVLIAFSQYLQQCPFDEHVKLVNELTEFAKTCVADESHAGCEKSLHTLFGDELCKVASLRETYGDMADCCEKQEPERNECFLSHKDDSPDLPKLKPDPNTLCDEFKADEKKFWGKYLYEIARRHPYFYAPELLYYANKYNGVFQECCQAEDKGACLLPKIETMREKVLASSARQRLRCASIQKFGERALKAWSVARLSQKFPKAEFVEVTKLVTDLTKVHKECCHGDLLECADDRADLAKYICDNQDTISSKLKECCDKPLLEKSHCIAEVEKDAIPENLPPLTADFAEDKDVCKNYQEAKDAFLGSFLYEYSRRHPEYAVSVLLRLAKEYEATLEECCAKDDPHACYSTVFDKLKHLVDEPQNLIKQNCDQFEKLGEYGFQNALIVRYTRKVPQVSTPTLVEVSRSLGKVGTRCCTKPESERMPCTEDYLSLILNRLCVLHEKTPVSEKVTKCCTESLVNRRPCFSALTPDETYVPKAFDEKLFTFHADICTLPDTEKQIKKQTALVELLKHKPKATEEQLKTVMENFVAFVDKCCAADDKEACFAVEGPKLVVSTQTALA
Method: (§1) PTL of Example 1, SRL of Example 2, AAL of Comparison Example 1, AOL of Comparison Example 2, and LCA of Comparison Example 3 that were biotin-labeled were used to the detection of glycoproteins by the enzyme-linked immunosorbent assay (ELISA).
(§2) The glycoprotein and albumin as protein not including a sugar chain as a control were dissolved in 0.1 M carbonic acid buffer solution (pH 9.5) at 1 mg/ml. Then, the resultant solution was added to a microtiter plate (Nunc 439454) and was incubated at 4 degrees C. overnight. Then, the resultant solution was cleaned by 0.05% Tween/PBS three times. Thereafter, 1% BSA/PBS was added to wells and the solution was incubated at 37 degrees C. for one hour. Then, after the solution was cleaned by 0.05% Tween/PBS three times, biotin labeled-lectin appropriately diluted by 1% BSA/0.05% Tween/PBS was added to the wells and the solution was incubated at 37 degrees C. for one hour. After the solution was cleaned by 0.05% Tween/PBS three times, HRP labeled streptavidin solution diluted by 1% BSA/0.05% Tween/PBS was added to wells and the solution was incubated at 37 degrees C. for 30 minutes. After the solution was cleaned by 0.05% Tween/PBS three times, TMB Peroxidase substrate system (KPL) was added and the resultant solution was incubated at a room temperature for 10 minutes while light was being blocked.
(§3) The reaction was stopped by 1 M phosphoric acid. Then, a microplate reader (MPR-A4i, TOSOH CORPORATION) was used to measure the absorbance at 450 nm. Based on this value, reaction value ([absorbance at 450 nm of a well for which glycoprotein was solid-phased to the plate and reacted]−[absorbance at 450 nm of a well for which glycoprotein was not solid-phased to the plate and reacted] was calculated. Next, for each lectin, the interaction strength (relative value) to each glycoprotein was calculated based on an assumption that the glycoprotein (thyroglobulin) value was 100%. The calculation result is shown in Table 9 and FIG. 19 to FIG. 23.

[2] = tested on: Immune-globulin G (human); conditions: (3) Immune-globulin G (human), N-linked glycan having α1→6 L-fucose; thyroglobulin value = 100%
Method: as §1, §2, §3

Invertase (yeast) = target: T1, Invertase (yeast); conditions: (6) Invertase (yeast), High mannose-type glycan; thyroglobulin value = 100%
Method: as §1, §2, §3

Lactoferrin (human) = Lactoferrin (human) (Homo sapiens, UniProt P02788); conditions: (2) Lactoferrin (human), N-linked glycan chain having α1→6 L-fucose; thyroglobulin value = 100%
Lactoferrin (human), sequence (P02788 20-710): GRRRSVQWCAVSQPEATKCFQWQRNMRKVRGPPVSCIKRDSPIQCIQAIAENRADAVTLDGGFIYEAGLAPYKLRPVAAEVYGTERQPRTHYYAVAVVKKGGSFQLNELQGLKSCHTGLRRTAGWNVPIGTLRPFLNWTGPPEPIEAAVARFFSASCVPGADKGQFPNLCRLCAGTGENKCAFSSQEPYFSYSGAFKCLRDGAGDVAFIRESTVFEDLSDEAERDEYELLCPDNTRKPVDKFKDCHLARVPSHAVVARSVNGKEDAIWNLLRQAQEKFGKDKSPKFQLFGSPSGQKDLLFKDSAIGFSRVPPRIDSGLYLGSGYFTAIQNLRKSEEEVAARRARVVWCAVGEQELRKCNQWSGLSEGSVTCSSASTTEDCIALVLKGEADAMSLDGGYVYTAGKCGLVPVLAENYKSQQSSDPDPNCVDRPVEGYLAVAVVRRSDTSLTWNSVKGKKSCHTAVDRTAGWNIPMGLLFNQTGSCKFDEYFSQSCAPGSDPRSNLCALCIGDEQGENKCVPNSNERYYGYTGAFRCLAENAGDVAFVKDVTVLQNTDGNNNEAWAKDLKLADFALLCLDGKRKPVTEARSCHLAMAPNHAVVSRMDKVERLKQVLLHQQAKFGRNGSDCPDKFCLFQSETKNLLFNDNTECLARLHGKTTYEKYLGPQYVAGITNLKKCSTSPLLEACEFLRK
Method: as §1, §2, §3

Mucin (bovine) = conditions: (8) Mucin (bovine), O-linked glycan including L-fucose; thyroglobulin value = 100%
Method: as §1, §2, §3

Mucin (pig) = conditions: (7) Mucin (pig), O-linked glycan including L-fucose; thyroglobulin value = 100%
Method: as §1, §2, §3

Thyroglobulin (pig) = Thyroglobulin (pig) (Sus scrofa, UniProt F1RRV3); conditions: (1) Thyroglobulin (pig), N-linked glycan having α1→6 L-fucose; thyroglobulin value = 100%
Thyroglobulin (pig), sequence (F1RRV3 20-2692): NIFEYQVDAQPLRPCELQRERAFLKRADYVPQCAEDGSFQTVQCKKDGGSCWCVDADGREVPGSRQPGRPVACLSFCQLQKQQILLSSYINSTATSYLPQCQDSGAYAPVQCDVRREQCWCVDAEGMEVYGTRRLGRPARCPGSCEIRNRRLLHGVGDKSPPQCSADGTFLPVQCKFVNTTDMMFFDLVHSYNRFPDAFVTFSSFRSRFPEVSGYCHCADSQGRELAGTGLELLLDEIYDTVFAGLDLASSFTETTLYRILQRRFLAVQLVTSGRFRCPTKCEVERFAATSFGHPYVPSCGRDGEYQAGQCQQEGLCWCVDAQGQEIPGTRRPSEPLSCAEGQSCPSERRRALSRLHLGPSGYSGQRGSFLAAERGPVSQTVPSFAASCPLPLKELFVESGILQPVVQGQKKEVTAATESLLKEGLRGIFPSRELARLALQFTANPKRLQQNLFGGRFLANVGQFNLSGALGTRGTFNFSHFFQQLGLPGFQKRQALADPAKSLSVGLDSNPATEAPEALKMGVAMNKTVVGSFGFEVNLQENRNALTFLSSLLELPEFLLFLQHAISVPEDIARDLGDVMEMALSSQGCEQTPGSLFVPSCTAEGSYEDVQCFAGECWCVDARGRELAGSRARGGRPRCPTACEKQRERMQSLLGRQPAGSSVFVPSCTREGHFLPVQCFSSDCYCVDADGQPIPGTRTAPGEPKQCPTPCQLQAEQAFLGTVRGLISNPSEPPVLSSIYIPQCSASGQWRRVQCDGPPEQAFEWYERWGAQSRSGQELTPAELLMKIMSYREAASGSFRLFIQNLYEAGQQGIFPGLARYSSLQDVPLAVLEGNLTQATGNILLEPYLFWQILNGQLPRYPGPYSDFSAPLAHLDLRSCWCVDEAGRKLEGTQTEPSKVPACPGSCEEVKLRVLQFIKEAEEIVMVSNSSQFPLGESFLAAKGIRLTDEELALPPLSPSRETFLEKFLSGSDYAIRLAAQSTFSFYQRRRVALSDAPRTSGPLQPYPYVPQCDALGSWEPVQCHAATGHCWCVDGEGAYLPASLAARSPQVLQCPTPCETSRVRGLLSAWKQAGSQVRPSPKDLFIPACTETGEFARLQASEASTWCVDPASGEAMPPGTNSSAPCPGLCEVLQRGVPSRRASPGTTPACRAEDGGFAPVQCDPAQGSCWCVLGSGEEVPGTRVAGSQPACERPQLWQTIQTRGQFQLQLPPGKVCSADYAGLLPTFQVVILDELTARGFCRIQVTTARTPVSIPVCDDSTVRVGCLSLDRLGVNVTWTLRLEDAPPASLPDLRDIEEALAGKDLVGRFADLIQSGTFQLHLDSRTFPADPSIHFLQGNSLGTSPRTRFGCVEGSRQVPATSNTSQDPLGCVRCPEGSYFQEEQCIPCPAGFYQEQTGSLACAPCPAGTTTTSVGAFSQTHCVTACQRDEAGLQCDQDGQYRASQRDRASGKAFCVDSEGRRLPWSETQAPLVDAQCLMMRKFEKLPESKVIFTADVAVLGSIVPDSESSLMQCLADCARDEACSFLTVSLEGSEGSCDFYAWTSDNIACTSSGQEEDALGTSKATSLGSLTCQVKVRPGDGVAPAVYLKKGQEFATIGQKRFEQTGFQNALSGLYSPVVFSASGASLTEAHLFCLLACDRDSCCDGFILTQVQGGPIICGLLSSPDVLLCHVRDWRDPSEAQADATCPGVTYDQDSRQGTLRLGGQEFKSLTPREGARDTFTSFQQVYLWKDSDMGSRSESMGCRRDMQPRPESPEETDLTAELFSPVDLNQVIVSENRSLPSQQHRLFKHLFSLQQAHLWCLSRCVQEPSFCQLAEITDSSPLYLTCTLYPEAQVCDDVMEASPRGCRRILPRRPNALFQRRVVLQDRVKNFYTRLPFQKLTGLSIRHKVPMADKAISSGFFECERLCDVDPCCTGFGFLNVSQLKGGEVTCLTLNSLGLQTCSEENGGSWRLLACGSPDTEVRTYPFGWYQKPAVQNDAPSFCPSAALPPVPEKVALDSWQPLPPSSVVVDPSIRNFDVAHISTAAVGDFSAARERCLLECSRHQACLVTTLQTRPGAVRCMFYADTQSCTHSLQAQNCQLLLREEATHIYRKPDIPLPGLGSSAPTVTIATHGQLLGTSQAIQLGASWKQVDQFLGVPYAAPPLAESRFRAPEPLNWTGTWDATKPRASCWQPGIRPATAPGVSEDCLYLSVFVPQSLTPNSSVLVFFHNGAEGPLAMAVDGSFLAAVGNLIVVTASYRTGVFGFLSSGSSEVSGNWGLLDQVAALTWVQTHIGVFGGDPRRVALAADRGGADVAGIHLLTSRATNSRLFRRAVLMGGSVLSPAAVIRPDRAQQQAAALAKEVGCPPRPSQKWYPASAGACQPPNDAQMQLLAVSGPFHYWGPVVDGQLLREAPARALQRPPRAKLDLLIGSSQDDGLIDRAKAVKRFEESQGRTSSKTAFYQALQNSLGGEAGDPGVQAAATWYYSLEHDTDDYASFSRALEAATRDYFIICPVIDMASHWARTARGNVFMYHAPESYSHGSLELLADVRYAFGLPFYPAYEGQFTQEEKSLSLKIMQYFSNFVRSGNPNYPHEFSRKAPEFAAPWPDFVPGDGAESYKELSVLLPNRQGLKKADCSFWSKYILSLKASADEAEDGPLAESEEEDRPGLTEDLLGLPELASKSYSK
Method: as §1, §2, §3

Transferrin (human) = Transferrin (human) (Homo sapiens, UniProt P02787); conditions: (4) Transferrin (human), N-linked glycan not including α1→6 L-fucose; thyroglobulin value = 100%
Transferrin (human), sequence (P02787 20-698): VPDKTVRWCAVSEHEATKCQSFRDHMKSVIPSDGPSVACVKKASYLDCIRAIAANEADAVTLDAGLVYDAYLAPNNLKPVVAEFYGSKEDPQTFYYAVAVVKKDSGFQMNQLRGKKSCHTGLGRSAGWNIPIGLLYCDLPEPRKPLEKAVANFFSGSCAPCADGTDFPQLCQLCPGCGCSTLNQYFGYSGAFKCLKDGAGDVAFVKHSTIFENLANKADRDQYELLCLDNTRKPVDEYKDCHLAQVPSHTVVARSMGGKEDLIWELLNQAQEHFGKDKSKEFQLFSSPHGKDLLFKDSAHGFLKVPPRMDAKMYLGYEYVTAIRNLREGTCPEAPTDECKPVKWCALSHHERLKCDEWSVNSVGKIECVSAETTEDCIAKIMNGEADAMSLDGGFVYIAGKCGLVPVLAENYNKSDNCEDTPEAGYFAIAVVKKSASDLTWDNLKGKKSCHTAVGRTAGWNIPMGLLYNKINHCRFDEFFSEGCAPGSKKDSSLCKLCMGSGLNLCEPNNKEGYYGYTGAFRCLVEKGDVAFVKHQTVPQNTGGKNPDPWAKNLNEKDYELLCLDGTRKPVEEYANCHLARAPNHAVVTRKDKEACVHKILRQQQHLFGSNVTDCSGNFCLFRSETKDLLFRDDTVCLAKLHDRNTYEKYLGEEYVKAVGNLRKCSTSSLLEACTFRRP
Method: as §1, §2, §3

[3] = tested on: α1-acidic glycoprotein (human); conditions: (5) α1-acidic glycoprotein (human), N-linked glycan having α1→3 L-fucose; thyroglobulin value = 100%
Method: as §1, §2, §3

Molecule | interaction strength (relative value) by ELISA [1] | interaction strength (relative value) by ELISA [2] | interaction strength (relative value) by ELISA (Invertase (yeast)) | interaction strength (relative value) by ELISA (Lactoferrin (human)) | interaction strength (relative value) by ELISA (Mucin (bovine)) | interaction strength (relative value) by ELISA (Mucin (pig)) | interaction strength (relative value) by ELISA (Thyroglobulin (pig)) | interaction strength (relative value) by ELISA (Transferrin (human)) | interaction strength (relative value) by ELISA [3]
Aspergillus oryzae lectin [AOL, reference compound] | X (Relative values of 10 or less) | Δ (Relative values of 50 to 10) | X (Relative values of 10 or less) | ◯ (Relative values of 80 to 50) | ⊚ (Relative values of 120 to 80) | ⊚ (Relative values of 120 to 80) | ⊚ (Relative values of 120 to 80) | X (Relative values of 10 or less) | Δ (Relative values of 50 to 10)
Stropharia rugosoannulata lectin [SRL, novel L-fucose α1→6 specific lectin purified from the mushroom Stropharia rugosoannulata] | X (Relative values of 10 or less) | ◯ (Relative values of 80 to 50) | X (Relative values of 10 or less) | ◯ (Relative values of 80 to 50) | X (Relative values of 10 or less) | X (Relative values of 10 or less) | ⊚ (Relative values of 120 to 80) | X (Relative values of 10 or less) | X (Relative values of 10 or less)
Pholiota terrestris lectin [PTL, novel L-fucose α1→6 specific lectin purified from the mushroom Pholiota terrestris] | X (Relative values of 10 or less) | ⊚ (Relative values of 120 to 80) | X (Relative values of 10 or less) | ⊚ (Relative values of 120 to 80) | X (Relative values of 10 or less) | X (Relative values of 10 or less) | ⊚ (Relative values of 120 to 80) | X (Relative values of 10 or less) | X (Relative values of 10 or less)
Lens culinaris agglutinin (protein) chain 1: TETTSFSITKFSPDQKNLIFQGDGYTTKGKLTLTKAVKSTVGRALYSTPIHIWDRDTGNVANFVTSFTFVIDAPSSYNVADEFTFFIAPVDTKPQTGGGYLGVFNSKEYDKTSQTVAVEFDTFYNAAWDPSNKERHIGIDVNSIKSVNTKSWNLQNGERANVVIAFNAATNVLTVTLTYP chain 2: VTSYTLNEVVPLKDVVPEWVRIGFSATTGAEFAAHEVHSWSFHSELGGTSSS | X (Relative values of 10 or less) | ◯ (Relative values of 80 to 50) | X (Relative values of 10 or less) | ◯ (Relative values of 80 to 50) | X (Relative values of 10 or less) | X (Relative values of 10 or less) | ⊚ (Relative values of 120 to 80) | X (Relative values of 10 or less) | X (Relative values of 10 or less)
Aleuria aurantia lectin (protein) PTEFLYTSKIAAISWAATGGRQQRVYFQDLNGKIREAQRGGDNPWTGGSSQNVIGEAKLFSPLAAVTWKSAQGIQIRVYCVNKDNILSEFVYDGSKWITGQLGSVGVKVGSNSKLAALQWGGSESAPPNIRVYYQKSNGSGSSIHEYVWSGKWTAGASFGSTVPGTGIGATAIGPGRLRIYYQATDNKIREHCWDSNSWYVGGFSASASAGVSIAAISWGSTPNIRVYWQKGREELYEAAYGGSWNTPGQIKDASRPTPSLPDTFIAANSSGNIDISVFFQASGVSLQQWQWISGKGWSIGAVVPTGTPAGW | X (Relative values of 10 or less) | Δ (Relative values of 50 to 10) | X (Relative values of 10 or less) | ◯ (Relative values of 80 to 50) | ⊚ (Relative values of 120 to 80) | ⊚ (Relative values of 120 to 80) | ⊚ (Relative values of 120 to 80) | X (Relative values of 10 or less) | Δ (Relative values of 50 to 10)
